For one experiment, the target named is T1, cynomolgus suPAR (cynomolgus, UniProt Q9GK78 23-303, limits assumed).
T1 construct: Target antigen of the off-rate screen; also called cynomolgus uPAR; cynoPLAUR-His
Briefly: BLI (Octet) off-rate screen of scFv clones.

For experiment [1], the target named is T2, human soluble urokinase plasminogen activator receptor (hsuPAR) (human, UniProt Q03405 23-303, limits assumed).
T2 construct: Target antigen of the off-rate screen; also called human suPAR; rhuPAR-His
Briefly: BLI (Octet) off-rate screen of scFv clones.

T2 sequence (Q03405 23-303 limits assumed): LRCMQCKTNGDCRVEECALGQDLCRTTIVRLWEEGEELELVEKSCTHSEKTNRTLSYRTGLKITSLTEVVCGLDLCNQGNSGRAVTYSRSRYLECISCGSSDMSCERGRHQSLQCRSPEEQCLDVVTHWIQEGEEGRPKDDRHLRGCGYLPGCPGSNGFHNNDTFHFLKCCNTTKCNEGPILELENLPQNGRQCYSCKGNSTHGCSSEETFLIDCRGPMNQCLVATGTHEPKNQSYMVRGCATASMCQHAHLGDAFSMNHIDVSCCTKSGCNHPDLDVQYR
T1 sequence (Q9GK78 23-303 limits assumed): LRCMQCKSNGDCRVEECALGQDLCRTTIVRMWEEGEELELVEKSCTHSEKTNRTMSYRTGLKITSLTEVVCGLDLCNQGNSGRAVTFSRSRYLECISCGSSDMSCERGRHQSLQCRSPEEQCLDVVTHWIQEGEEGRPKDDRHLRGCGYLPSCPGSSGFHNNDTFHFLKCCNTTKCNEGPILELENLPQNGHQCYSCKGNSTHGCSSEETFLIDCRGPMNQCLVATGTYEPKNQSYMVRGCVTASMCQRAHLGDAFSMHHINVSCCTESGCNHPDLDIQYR

B1: suPAR_DB03_B09 (scFv, V domains shown)
VH: QVQLVQSGAEVKKPGASVKVSCKASGYNIKSYYIHWVRQAPGQGLEWMGWIDPEGGSTIYDQKFQGRVTMTRDTSTSTVYMELSSLRSEDTAVYYCARGYDVDWFVYWGQGTLVTVSS
VL: DIQMTQSPSSLSASVGDRVTITCSARSSVSYMYWYQQKPGKAPKLLIYRTSNLASGVPSRFSGSGSGTDFTLTISSLQPEDFATYYCQQYHSYPPTFGGGTKVEIK
notes: screened as scFv
As usually defined, the koff is a measure of how fast the partners let go of each other. High values mean fast dissociation, low ones slow dissociation. For B1, the koff worked out at 0.000126 s⁻¹ with cynomolgus suPAR and 0.00421 s⁻¹ in experiment [1].

B2: suPAR_DB03_C12 (scFv, V domains shown)
VH: QVQLVQSGAEVKKPGASVKVSCKASGNTFTNYYMHWVRQAPGQGLEWMGWIDHENGNTSYDQKFQGRVTMTRDTSTSTVYMELSSLRSEDTAVYYCARGYDVDWFVYWGQGTLVTVSS
VL: DIQMTQSPSSLSASVGDRVTITCSARSSVSYMYWYQQKPGKAPKLLIYRTSNLASGVPSRFSGSGSGTDFTLTISSLQPEDFATYYCQQYHSYPPTFGGGTKVEIK
notes: screened as scFv
Take B2: the koff is 7.59e-05 s⁻¹ with cynomolgus suPAR and 0.00396 s⁻¹ in experiment [1].

B3: suPAR_DB03_D07 (scFv, V domains shown)
VH: QVQLVQSGAEVKKPGASVKVSCKASGNTFTNYYVHWVRQAPGQGLEWMGWIDPSNGNTIYDQKFQGRVTMTRDTSTSTVYMELSSLRSEDTAVYYCARGYDVDWFVYWGQGTLVTVSS
VL: DIQMTQSPSSLSASVGDRVTITCSARSSVSYMYWYQQKPGKAPKLLIYRTSNLASGVPSRFSGSGSGTDFTLTISSLQPEDFATYYCQQYHSYPPTFGGGTKVEIK
notes: screened as scFv
Turning to B3, the off-rate constant (koff) with cynomolgus suPAR was found to be 0.000163 s⁻¹; in experiment [1], 0.00308 s⁻¹.

B4: suPAR_DB03_C07 (scFv, V domains shown)
VH: QVQLVQSGAEVKKPGASVKVSCKASGYTFTNYYVHWVRQAPGQGLEWMGWIDHENGSTIYDQKFQGRVTMTRDTSTSTVYMELSSLRSEDTAVYYCARGYDVDWFVYWGQGTLVTVSS
VL: DIQMTQSPSSLSASVGDRVTITCSARSSVSYMYWYQQKPGKAPKLLIYRTSNLASGVPSRFSGSGSGTDFTLTISSLQPEDFATYYCQQYHSYPPTFGGGTKVEIK
notes: screened as scFv
B4: the koff came out at 5.78e-05 s⁻¹ with cynomolgus suPAR and 0.00166 s⁻¹ in experiment [1].

B5: suPAR_DB03_C04 (scFv, V domains shown)
VH: QVQLVQSGAEVKKPGASVKVSCKASGFNIKDYYIHWVRQAPGQGLEWMGWIDPENGSTIYDQKFQGRVTMTRDTSTSTVYMELSSLRSEDTAVYYCARGYDVDWFVYWGQGTLVTVSS
VL: DIQMTQSPSSLSASVGDRVTITCSASSSISYMYWYQQKPGKAPKLLIYRTSSLASGVPSRFSGSGSGTDFTLTISSLQPEDFATYYCQQYHSYPPTFGGGTKVEIK
notes: screened as scFv
With B5, the koff amounted to 4.37e-07 s⁻¹ with cynomolgus suPAR and 0.00301 s⁻¹ in experiment [1].

B6: suPAR_DB03_C09 (scFv, V domains shown)
VH: QVQLVQSGAEVKKPGASVKVSCKASGYTFTSYYMHWVRQAPGQGLEWMGWIDHENGSTIYDQKFQGRVTMTRDTSTSTVYMELSSLRSEDTAVYYCARGYDVDWFVYWGQGTLVTVSS
VL: DIQMTQSPSSLSASVGDRVTITCSARQSVSYMYWYQQKPGKAPKLLIYRTSNLASGVPSRFSGSGSGTDFTLTISSLQPEDFATYYCQQYHSYPPTFGGGTKVEIK
notes: screened as scFv
For B6, the koff turned out to be 3.75e-07 s⁻¹ with cynomolgus suPAR and 0.00103 s⁻¹ in experiment [1].

B7: suPAR_DB03_B10 (scFv, V domains shown)
VH: QVQLVQSGAEVKKPGASVKVSCKASGYTFTGYYMHWVRQAPGQGLEWMGWIDHENGNTIYDQKFQGRVTMTRDTSTSTVYMELSSLRSEDTAVYYCARGTDVDWFVYWGQGTLVTVSS
VL: DIQMTQSPSSLSASVGDRVTITCSASSSISYMYWYQQKPGKAPKLLIYRTSNLASGVPSRFSGSGSGTDFTLTISSLQPEDFATYYCQQYHSYPPTFGGGTKVEIK
notes: screened as scFv
Regarding B7, the koff came out at 0.000138 s⁻¹ in the experiment with cynomolgus suPAR and 0.004 s⁻¹ in experiment [1].

B8: suPAR_DB03_C10 (scFv, V domains shown)
VH: QVQLVQSGAEVKKPGASVKVSCKASGYTFTSYYMHWVRQAPGQGLEWMGWIDHEGGSTIYAQKFQGRVTMTRDTSTSTVYMELSSLRSEDTAVYYCASGYDVDWFVYWGQGTLVTVSS
VL: DIQMTQSPSSLSASVGDRVTITCSARSSVSYMYWYQQKPGKAPKLLIYRTSNLASGVPSRFSGSGSGTDFTLTISSLQPEDFATYYCQQYHSYPPTFGGGTKVEIK
notes: screened as scFv
As for B8, the results for the koff (in the experiment with cynomolgus suPAR; in experiment [1]) were 0.000301 s⁻¹ and 0.00452 s⁻¹, respectively.

B9: suPAR_DB03_D01 (scFv, V domains shown)
VH: QVQLVQSGAEVKKPGASVKVSCKASGFNIKDYYIHWVRQAPGQGLEWMGWMDPNSGGTNYAQKFQGRVTMTRDTSTSTVYMELSSLRSEDTAVYYCARGYDVDWFVYWGQGTLVTVSS
VL: DIQMTQSPSSLSASVGDRVTITCSARSSVSYMYWYQQKPGKAPKLLIYRTSNLASGVPSRFSGSGSGTDFTLTISSLQPEDFATYYCQQYHSYPPTFGGGTKVEIK
notes: screened as scFv
With B9, the values for the koff (with cynomolgus suPAR; in experiment [1]) were 8.49e-05 s⁻¹ and 0.00416 s⁻¹, respectively.

B10: suPAR_DB03_C02 (scFv, V domains shown)
VH: QVQLVQSGAEVKKPGASVKVSCKASGYSFTNYYIHWVRQAPGQGLEWMGWIDHENGNTIYDQKFQGRVTMTRDTSTSTVYMELSSLRSEDTAVYYCARGNDVDWFVYWGQGTLVTVSS
VL: DIQMTQSPSSLSASVGDRVTITCSARSSVSYMYWYQQKPGKAPKLLIYRTSNLASGVPSRFSGSGSGTDFTLTISSLQPEDFATYYCQQYHSYPPTFGGGTKVEIK
notes: screened as scFv
Take B10: the koff was 0.000366 s⁻¹ in the experiment with cynomolgus suPAR and 0.00534 s⁻¹ in experiment [1].

B11: suPAR_DB03_D05 (scFv, V domains shown)
VH: QVQLVQSGAEVKKPGASVKVSCKASGDNFTTYYMHWVRQAPGQGLEWMGWIDPENGNTIYAQKFQGRVTMTRDTSTSTVYMELSSLRSEDTAVYYCARGYDVDWFVYWGQGTLVTVSS
VL: DIQMTQSPSSLSASVGDRVTITCSARSSVSYMYWYQQKPGKAPKLLIYRTSNLASGVPSRFSGSGSGTDFTLTISSLQPEDFATYYCQQYHSYPPTFGGGTKVEIK
notes: screened as scFv
Take B11: the koff is 3.55e-05 s⁻¹ in the experiment with cynomolgus suPAR and 0.00482 s⁻¹ in experiment [1].

B12: suPAR_DB03_C08 (scFv, V domains shown)
VH: QVQLVQSGAEVKKPGASVKVSCKASGGTFTNYYMHWVRQAPGQGLEWMGWIDHENGSTIYAQKFQGRVTMTRDTSTSTVYMELSSLRSEDTAVYYCARGYDVDWFVYWGQGTLVTVSS
VL: DIQMTQSPSSLSASVGDRVTITCSARSSVSYMYWYQQKPGKAPKLLIYRTSSLASGVPSRFSGSGSGTDFTLTISSLQPEDFATYYCQQYHSYPPTFGGGTKVEIK
notes: screened as scFv
Turning to B12, the koff with cynomolgus suPAR was found to be 9.98e-05 s⁻¹; in experiment [1], 0.00103 s⁻¹.

B13: suPAR_DB03_C03 (scFv, V domains shown)
VH: QVQLVQSGAEVKKPGASVKVSCKASGYTFTGYYMHWVRQAPGQGLEWMGWIDHENGSTSYDQKFQGRVTMTRDTSTSTVYMELSSLRSEDTAVYYCASGYDVDWFVYWGQGTLVTVSS
VL: DIQMTQSPSSLSASVGDRVTITCSARSSVSYMYWYQQKPGKAPKLLIYGASNLQSGVPSRFSGSGSGTDFTLTISSLQPEDFATYYCQQYHSYPPTFGGGTKVEIK
notes: screened as scFv
Consider B13, for which the koff amounted to 0.00108 s⁻¹ with cynomolgus suPAR and 0.00464 s⁻¹ in experiment [1].

B14: suPAR_DB03_D06 (scFv, V domains shown)
VH: QVQLVQSGAEVKKPGASVKVSCKASGYSFTNYYMHWVRQAPGQGLEWMGWIDHENGNTSYAQKFQGRVTMTRDTSTSTVYMELSSLRSEDTAVYYCARGYDVDWFVYWGQGTLVTVSS
VL: DIQMTQSPSSLSASVGDRVTITCSARSSVSYMYWYQQKPGKAPKLLIYRTSNLASGVPSRFSGSGSGTDFTLTISSLQPEDFATYYCQQYHSYPPTFGGGTKVEIK
notes: screened as scFv
With B14, the values for the koff (with cynomolgus suPAR; in experiment [1]) were 0.000388 s⁻¹ and 0.00295 s⁻¹, respectively.

B15: suPAR_DB03_D03 (scFv, V domains shown)
VH: QVQLVQSGAEVKKPGASVKVSCKASGYTFTGYYIHWVRQAPGQGLEWMGWIDPENGNTIYAQKFQGRVTMTRDTSTSTVYMELSSLRSEDTAVYYCARGYDVDWFVYWGQGTLVTVSS
VL: DIQMTQSPSSLSASVGDRVTITCRARQSVSYMYWYQQKPGKAPKLLIYRTSNLASGVPSRFSGSGSGTDFTLTISSLQPEDFATYYCQQYHSYPPTFGGGTKVEIK
notes: screened as scFv
B15: the koff is 0.000156 s⁻¹ with cynomolgus suPAR and 0.00258 s⁻¹ in experiment [1].

B16: suPAR_DB03_D02 (scFv, V domains shown)
VH: QVQLVQSGAEVKKPGASVKVSCKASGYTFTRYYLHWVRQAPGQGLEWMGWIDPENGNTIYAQKFQGRVTMTRDTSTSTVYMELSSLRSEDTAVYYCARGYDVDWFVYWGQGTLVTVSS
VL: DIQMTQSPSSLSASVGDRVTITCSARSSVSYMYWYQQKPGKAPKLLIYRTSNLASGVPSRFSGSGSGTDFTLTISSLQPEDFATYYCQQYHSYPPTFGGGTKVEIK
notes: screened as scFv
On to B16, for which the koff with cynomolgus suPAR was 0.000241 s⁻¹; in experiment [1] it was 0.00755 s⁻¹.

B17: suPAR_DB03_C01 (scFv, V domains shown)
VH: QVQLVQSGAEVKKPGASVKVSCKASGSTSTDHYVHWVRQAPGQGLEWMGWIDHEGGSTIYAQKFQGRVTMTRDTSTSTVYMELSSLRSEDTAVYYCARGYDVDWFVYWGQGTLVTVSS
VL: DIQMTQSPSSLSASVGDRVTITCSARSSVSYMYWYQQKPGKAPKLLIYRTSNLASGVPSRFSGSGSGTDFTLTISSLQPEDFATYYCQQYHSYPPTFGGGTKVEIK
notes: screened as scFv
As to B17, the off-rate constant (koff) was 0.000165 s⁻¹ in the experiment with cynomolgus suPAR and 0.00366 s⁻¹ in experiment [1].

B18: suPAR_DB03_D04 (scFv, V domains shown)
VH: QVQLVQSGAEVKKPGASVKVSCKASGYTFTNYYMHWVRQAPGQGLEWMGWIDPENGSTIYDQKFQGRVTMTRDTSTSTVYMELSSLRSEDTAVYYCARGYDVDWFVYWGQGTLVTVSS
VL: DIQMTQSPSSLSASVGDRVTITCSARSSVSYMYWYQQKPGKAPKLLIYRTSNLASGVPSRFSGSGSGTDFTLTISSLQPEDFATYYCQQSHSYPPTFGGGTKVEIK
notes: screened as scFv
Turning to B18, the koff in the experiment with cynomolgus suPAR is 0.0059 s⁻¹; in experiment [1] it was 0.00325 s⁻¹.

B19: suPAR_DB03_C06 (scFv, V domains shown)
VH: QVQLVQSGAEVKKPGASVKVSCKASGYTFTDYYVHWVRQAPGQGLEWMGWIDHEGGSTSYDQKFQGRVTMTRDTSTSTVYMELSSLRSEDTAVYYCARGYDVDWFVYWGQGTLVTVSS
VL: DIQMTQSPSSLSASVGDRVTITCSASSSVSYMYWYQQKPGKAPKLLIYRTSNLASGVPSRFSGSGSGTDFTLTISSLQPEDFATYYCQQYHSYPPTFGGGTKVEIK
notes: screened as scFv
Take B19: the koff with cynomolgus suPAR worked out at 0.000189 s⁻¹; in experiment [1], 0.00318 s⁻¹.

Values taken from US20250215104A1 (WALDEN BIOSCIENCES, published 2025).
